System: CD8+ T cells
Assay: In vitro immunogenicity: T-cell priming with aAPCs loaded with peptide/MHC complexes and anti-CD28 antibody, pMHC multimer readout
Type: cell-based, human
Conditions: in vitro immunogenicity of HLA class I peptides; peptide-specific multimer+ wells after aAPC priming of CD8+ T cells
Description: In an aspect, the peptides are pre-screened for immunogenicity before being included in the warehouse. By way of example, and not limitation, the immunogenicity of the peptides included in the warehouse is determined by a method comprising in vitro T-cell priming through repeated stimulations of CD8+ T cells from healthy donors with artificial antigen presenting cells loaded with peptide/MHC complexes and anti-CD28 antibody.
In order to obtain information regarding the immunogenicity of the TUMAPs of the present invention, the inventors performed investigations using an in vitro T-cell priming assay based on repeated stimulations of CD8+ T cells with artificial antigen presenting cells (aAPCs) loaded with peptide/MHC complexes and anti-CD28 antibody.
In order to perform in vitro stimulations by artificial antigen presenting cells loaded with peptide-MHC complex (pMHC) and anti-CD28 antibody, the inventors first isolated CD8+ T cells from fresh HLA-A*02 leukapheresis products via positive selection using CD8 microbeads (Miltenyi Biotec, Bergisch-Gladbach, Germany) of healthy donors obtained from the University clinics Mannheim, Germany, after informed consent.
PBMCs and isolated CD8+ lymphocytes were incubated in T-cell medium (TCM) until use consisting of RPMI-Glutamax (Invitrogen, Karlsruhe, Germany) supplemented with 10% heat inactivated human AB serum (PAN-Biotech, Aidenbach, Germany), 100 U/ml Penicillin/100 μg/ml Streptomycin (Cambrex, Cologne, Germany), 1 mM sodium pyruvate (CC Pro, Oberdorla, Germany), 20 μg/ml Gentamycin (Cambrex). 2.5 ng/ml IL7 (PromoCell, Heidelberg, Germany) and 10 U/ml IL-2 (Novartis Pharma, Nurnberg, Germany) were also added to the TCM at this step.
Generation of pMHC/anti-CD28 coated beads, T-cell stimulations and readout was performed in a highly defined in vitro system using four different pMHC molecules per stimulation condition and 8 different pMHC molecules per readout condition.
The purified co-stimulatory mouse IgG2a anti human CD28 Ab 9.3 (Jung et al., 1987) was chemically biotinylated using Sulfo-N-hydroxysuccinimidobiotin as recommended by the manufacturer (Perbio, Bonn, Germany). Beads used were 5.6 μm diameter streptavidin coated polystyrene particles (Bangs Laboratories, Illinois, USA).
pMHC used for positive and negative control stimulations were A*0201/MLA-001 (peptide […] (SEQ ID NO. 303) from modified Melan-A/MART-1) and A*0201/DDX5-001 ([…] from DDX5, SEQ ID NO. 304), respectively.
800.000 beads/200 μl were coated in 96-well plates in the presence of 4×12.5 ng different biotin-pMHC, washed and 600 ng biotin anti-CD28 were added subsequently in a volume of 200 μl. Stimulations were initiated in 96-well plates by co-incubating […] CD8+ T cells with 2×10^5 washed coated beads in 200 μl TCM supplemented with 5 ng/ml IL-12 (PromoCell) for 3 days at 37° C. Half of the medium was then exchanged by fresh TCM supplemented with 80 U/ml IL-2 and incubating was continued for 4 days at 37° C. This stimulation cycle was performed for a total of three times. For the pMHC multimer readout using 8 different pMHC molecules per condition, a twodimensional combinatorial coding approach was used as previously described (Andersen et al., 2012) with minor modifications encompassing coupling to 5 different fluorochromes. Finally, multimeric analyses were performed by staining the cells with Live/dead near IR dye (Invitrogen, Karlsruhe, Germany), CD8-FITC antibody clone SK1 (BD, Heidelberg, Germany) and fluorescent pMHC multimers. For analysis, a BD LSRII SORP cytometer equipped with appropriate lasers and filters was used. Peptide specific cells were calculated as percentage of total CD8+ cells. Evaluation of multimeric analysis was done using the FlowJo software (Tree Star, Oregon, USA). In vitro priming of specific multimer+ CD8+ lymphocytes was detected by comparing to negative control stimulations.

Row | Substance | Wells positive [%]
1 | 4 (KLMPGTYTL; listed as Homo sapiens) [compound 4] | + (<20% = +)
2 | 12 (GLLPLLHRA; listed as Homo sapiens) [compound 12] | ++++ (>=70% = ++++)
3 | 249 (GLCERLVSL; listed as Homo sapiens) [compound 249] | + (<20% = +)

Target: HLA-A*02 (Homo sapiens, UniProt P04439, D140Y/D185E/D98H/E176V/E277Q/G131W/G231S/I119V/I121R/I166T/I218V/N151K/N90K/P208A/P217A/Q86G/Q94H/R138H/R169H)
Assay: MHC binding assay (UV-ligand exchange, beta2m ELISA), HLA-A*02
Conditions: MHC class I binding score, peptide exchange yield
From the text: Candidate peptides for T cell based therapies according to the present invention were further tested for their MHC binding capacity (affinity). The individual peptide-MHC complexes were produced by UV-ligand exchange, where a UV-sensitive peptide is cleaved upon UV-irradiation, and exchanged with the peptide of interest as analyzed. Only peptide candidates that can effectively bind and stabilize the peptide-receptive MHC molecules prevent dissociation of the MHC complexes. To determine the yield of the exchange reaction, an ELISA was performed based on the detection of the light chain ([…] of stabilized MHC complexes. The assay was performed as generally described in Rodenko et al. (Rodenko et al., 2006).
96 well MAXISorp plates (NUNC) were coated over night with 2 ug/ml streptavidin in PBS at room temperature, washed 4× and blocked for 1 h at 37° C. in 2% BSA containing blocking buffer. Refolded HLA-A*02:01/MLA-001 monomers served as standards, covering the range of 15-500 ng/ml. Peptide-MHC monomers of the UV-exchange reaction were diluted 100 fold in blocking buffer. Samples were incubated for 1 h at 37° C., washed four times, incubated with 2 ug/ml HRP conjugated anti-β2m for 1 h at 37° C., washed again and detected with TMB solution that is stopped with […]. Absorption was measured at 450 nm. Candidate peptides that show a high exchange yield (preferably higher than 50%, most preferred higher than 75%) are generally preferred for a generation and production of antibodies or fragments thereof, and/or T cell receptors or fragments thereof, as they show sufficient avidity to the MHC molecules and prevent dissociation of the MHC complexes.

Row | Substance | Peptide exchange
4 | 4 (KLMPGTYTL; listed as Homo sapiens) [compound 4] | ++++ (>=75% = ++++)
5 | 12 (GLLPLLHRA; listed as Homo sapiens) [compound 12] | ++++ (>=75% = ++++)
6 | 100 (ALLGMIIVGV; listed as Homo sapiens) [compound 100] | + (<20% = +)
7 | 112 (SLGKFTFDV; listed as Homo sapiens) [compound 112] | ++++ (>=75% = ++++)
8 | 120 (VTPVTVSAV; listed as Homo sapiens) [compound 120] | + (<20% = +)
9 | 125 (SLADYEHFV; listed as Homo sapiens) [compound 125] | ++++ (>=75% = ++++)
10 | 126 (QMFQYFITV; listed as Homo sapiens) [compound 126] | ++++ (>=75% = ++++)
11 | 129 (RLQDILWFL; listed as Homo sapiens) [compound 129] | ++++ (>=75% = ++++)
12 | 133 (ALLPRLHQL; listed as Homo sapiens) [compound 133] | ++++ (>=75% = ++++)
13 | 147 (YLMDDTVEI; listed as Homo sapiens) [compound 147] | ++++ (>=75% = ++++)
14 | 153 (FISERVEVV; listed as Homo sapiens) [compound 153] | ++++ (>=75% = ++++)
15 | 229 (AILAHLNTV; listed as Homo sapiens) [compound 229] | ++++ (>=75% = ++++)
16 | 245 (SLLDLPLSL; listed as Homo sapiens) [compound 245] | ++++ (>=75% = ++++)
17 | 248 (YLDRFLAGV; listed as Homo sapiens) [compound 248] | ++++ (>=75% = ++++)
18 | 249 (GLCERLVSL; listed as Homo sapiens) [compound 249] | ++++ (>=75% = ++++)
19 | 257 (GLYTDPCGV; listed as Homo sapiens) [compound 257] | ++++ (>=75% = ++++)
20 | 258 (LLSERFINV; listed as Homo sapiens) [compound 258] | ++++ (>=75% = ++++)

Source: patent US20170189507A1, “NOVEL PEPTIDES AND COMBINATION OF PEPTIDES FOR USE IN IMMUNOTHERAPY AGAINST VARIOUS CANCERS” (immatics biotechnologies GmbH, priority 2015, published 2017)
